Laboratory results reported in patent US20120121504A1 (UNITED STATES OF AMERICA AS REPRESENTED BY THE SECRETARY …, published 2012).
Ends that are not written are not given here.

Experiments:
[1] = target: T1, human CD52 (human, UniProt P31358 25-36, ends and bridges not checked); experiment: flow cytometry, MFI ratio grade (sample over background), third party B cells
T1 construct: whole, on cells; also called CD52 antigen
T1 chain (looked up): GQNDTSQTSSPS

[2] = target: T1, human CD52; experiment: flow cytometry, MFI ratio grade (sample over background), allogeneic B cells

B1: alemtuzumab (humanized anti-human CD52 mAb with human IgG1 kappa constant domains) (antibody, V domains shown)
VH: QVQLQESGPGLVRPSQTLSLTCTVSGFTFTDFYMNWVRQPPGRGLEWIGFIRDKAKGYTTEYNPSVKGRVTMLVDTSKNQFSLRLSSVTAADTAVYYCAREGHTAAPFDYWGQGSLVTVSS
VL: DIQMTQSPSSLSASVGDRVTITCKASQNIDKYLNWYQQKPGKAPKLLIYNTNNLQTGVPSRFSGSGSGTDFTFTISSLQPEDIATYYCLQHISRPRTFGQGTKVEIKR
MFI ratio (sample over background) [1]: > 100 ratio | MFI ratio (sample over background) [2]: > 100 ratio
